Data reported in publication PMC11327358 (Nature Communications, 2024).

B1: mAb S2A5 (mouse variable regions on human IgG1) (antibody, V domains shown)
VH: EVQLQQSGPELVKPGASVKVSCKASGYSFSDDNMYWVKQSHGKSLEWIGYIDPDNGGTSYNQKFKGKATLTVDKSSSTAFMHLNSLTSEDSAVYYCAREDYYGSRAMDYWGQGTSVTVSS
VL: DIVLTQSPASLAVSLGQRATISCKASQSVDYAGDSYMNWYQQKPGQPPKLLIYAASNLESAIPARFSGSGSGTDFTLNIHPVQEEDAATYYCQQSYEDPRTFGGGTKLEIK
B2: mAb B1G11 (mouse variable regions on human IgG1) (antibody, V domains shown)
VH: EVKLMESGGGLVQPGDSLRLSCAISGFTFSDYYMSWVRQPPGKALEWLGFIRNKAKGYTTEYSASVKGRFTISRDNSQSILYLQMNTLRAEDSATYYCARDYRYDDEYYYAMDYWGQGTSVTVSS
VL: GVVMTQTTSSLSASLGDRVTISCSASQGISNYLNWYQQKPDGTVKLLIYYTSILHSGVPSRFSGSGSGTDYSLTISNLEPEDIATYYCQQYSKFPRTFGGGTKLEIK
B3: mAb N1D10 (mouse variable regions on human IgG1) (antibody, V domains shown)
VH: EVKLVESGGGLVQPGGSLKLSCAASGFTFSTYTMSWVRQTPEKRLEWVAYISNGGGSTYYPDTVKGRFTISRDNAKNTLYLQMSSLNSEDTAMYYCARSYGNFDVWGAGTTVTVSS
VL: DVVMTQTPLSLPVSFGDQVSISCRSSQSLANSYGNTYLSWYLHKPGQSPQLLIYGISKRFSGVPDRFSGSGSGTDFTLKISTIKPEDLGMYYCLQGTHQPWTFGGGTKLEIK

Legend:
[1] = molecular target: S2A5-L1^A (S2A5 with alanine substitution in light chain region 26-30C) (mouse | human); experiment: BLI
[2] = molecular target: GTV Gn head domain (residues 19-337) (Guertu virus (GTV), GenBank KT328592.1, UniProt A0A0S2Z2X2); experiment: ELISA

Molecule	fold decrease of binding affinity against WT S2A5 [1] [fold]	binding result [2]
SFTSV Gn head domain protein (residues 20-340, strain WCH97, genotype A) (domain or fragment)	11	–
B1	–	binds
B2	–	binds
B3	–	binds
